In the supplement of paper PMC10567573:

B1: TOR1AIP2 (parent)
chain: AGQEGEDTLRRRLLAPEAGSHPQQ

Variants of: B1
Assay: protein stability index of a GFP-peptide fusion (GPS, HEK-293T) (PSI 1-6); higher = more stable
Details: c terminus: a fixed tail appended
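Also: lentivirally expressed fusions sorted by FACS into six bins by GFP to DsRed ratio, PSI derived from sequencing read proportions per bin multiplied by bin number.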

Protein stability index: each site, then its substitutions
S20: H 2.1; N 2.02; K 1.97; E 2.91; I 2.08; M 2.68; P 2.53; A 2.45; L 2.09; F 1.73; R 2.28; Q 2.35; G 2.25; D 3.33; C 1.62
E17: R 4.68; K 3.86; L 2.13; F 3.31; H 3.34; T 4.53; V 4.57; S 4.34; G 3.5; D 2.2; A 4.22; I 4.11; Q 2.63; M 2.79; C 3.65; N 3.16; P 5.13; Y 2.44
R12: A 2.65; C 2.51; V 2.47; N 3.89; Y 2.3; S 3.03; E 4.75; M 1.8; T 2.35; L 2.56; F 1.83; Q 2.87; I 1.93; K 3.55; P 5.19; H 3.29; D 4.7; G 4.97
G19: L 1.72; F 1.86; K 1.86; P 2.69; C 2.15; D 2.83; A 2.23; E 2.15; N 2.27; H 2.22; V 2.37; R 2.49; M 3; I 2.54; Y 1.75; Q 2.13; T 2.58; W 1.31
Q3: A 2.22; I 1.55; K 2.02; M 1.74; W 2.14; R 1.09; D 3.76; N 1.82; C 1.34; S 2.31; P 2.92; V 2.27; G 2.65; Y 1.37; F 2.05; E 3.17; L 2.47; T 2.47
G5: W 1.35; V 2.55; Q 2.99; M 1.97; N 3.27; F 1.83; C 3.6; H 2.08; R 2.46; K 2.46; T 2.72; E 2.72; A 2.44; D 3.43; I 2.72; S 2.03; P 2.91; Y 1.84; L 2.49
A18: Y 1.43; P 4.77; M 2.08; S 2.35; L 1.57; E 3.46; D 3.62; I 1.9; V 2.75; C 2.48; H 3.03; T 3.11; N 4.09; F 2.16; G 3.92; Q 3.35; K 3.5; R 2.87; W 2.21
E4: N 1.65; F 1.79; L 1.81; Q 2.17; W 2.35; P 1.61; T 2.15; M 2.05; H 1.79; C 2.16; R 1.29; D 2.02; Y 1.72; S 2.31; K 1.85; V 2.79; G 2.21; I 1.74
T8: G 2.93; W 1.5; V 3.16; Q 2.81; M 2.34; S 2.03; Y 3.17; K 3.24; R 2.71; N 1.67; P 3.37; H 3.12; C 2.42; E 2.79; F 3.06; D 3.21; L 2.28; A 2.41; I 2.17
L9: F 3.61; Q 4.56; N 4.61; P 4.27; W 2.41; E 4.58; I 2.33; K 3.87; Y 3.67; T 4.59; D 4.17; R 4.45; C 4.29; V 3.8; M 3.69; H 4.71; S 5.06; G 4.89; A 4.4
P16: N 5.24; D 5.74; A 5.48; K 5.01; C 4.47; H 4.5; Q 5.21; W 3.99; L 5.32; I 5.07; V 4.63; G 5.51; M 4.81; F 4.52; Y 4.86; S 5.43; E 5.45; T 4.45; R 4.7
R11: P 5.65; L 2.85; Q 3.78; D 5.21; V 3.27; G 5.29; W 2.12; S 4.4; M 2.22; I 2.85; C 3.77; F 2.02; N 4.6; E 4.6; T 3.98; K 2.81; Y 1.16; H 2.4
A15: S 3; G 4.34; Q 4.9; M 4.55; W 4.49; F 4.87; C 1.34; R 5.03; P 5.46; N 4.55; D 5.39; K 5.44; I 4.48; L 5.02; Y 4.12; T 3.68; E 5.18; V 5.17; H 5.18
G2: W 2.45; V 1.67; R 2.91; S 2.71; Y 2.12
E6: V 2.53; W 2.63; H 2.32; G 1.73; L 1.94; P 2.88; T 2.08; Q 2.37; M 2.33; A 2.25; K 1.95; D 2.79; F 3.25; I 2.13; N 3.08; R 3.06; Y 2.5; S 2.59
D7: H 2.73; T 3.15; R 1.73; G 2.12; I 1.76; L 2.73; N 1.97; S 2.04; E 2.56; K 2.57; P 4.24; V 1.76; C 1.54; M 1.88; Y 2.41; F 2.47; Q 2.39
L14: H 5.5; I 5.06; S 5.63; A 5.73; K 5.51; W 4.69; N 5.56; G 5.21; C 4.91; Q 5.68; M 4.6; V 5.37; P 5.93; R 5.17; F 4.25; D 5.59; E 5.37; T 5.58; Y 4.5
L13: T 5.03; I 1.82; G 5.55; Y 4.14; V 3.31; C 3.48; P 5.6; M 2.22; Q 5.15; H 4.82; R 5.04; W 3.21; F 3.32; E 5.53; D 4.91; K 5.21; S 5.22; A 3.81; N 5.55
R10: I 4.62; F 4.51; K 5.06; T 5.17; M 4.88; Q 5.08; S 5.29; G 5.17; E 5.4; A 4.84; W 4.37; V 4.26; N 5.29; L 4.82; P 5.19; D 5.38; H 5.31; Y 4.53; C 5.64
